The record followed here is the supplement of paper PMC9112550, “Optimization of the antimicrobial peptide Bac7 by deep mutational scanning” (BMC Biology, 2022).

For the data set, the system named is Escherichia coli TOP10. Kind of data set: shrunken log2 fold change of peptide-encoding DNA abundance (4.5 h post-induction vs induction); higher = less antimicrobial activity (less host growth inhibition). Particulars: time post-induction: 4.5 h; library: site-saturation at positions 5, 18, 19, 20.
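Note: peptides expressed intracellularly from a pBAD plasmid library in pooled LB shake-flask culture, induced with 0.3% L-arabinose, DNA abundance read by NGS, three biological replicates, DESeq2 with apeglm shrinkage.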

On to RRIRQRPPRLPRPRPRPCFPPRP, for which the “shrunken log2 fold change” value turned out to be 0.121.
Turning to RRIRCRPPRLPRPRPRPRACPRP, the “shrunken log2 fold change” value turned out to be 0.24.
For the sequence RRIRARPPRLPRPRPRPGMTPRP, the “shrunken log2 fold change” value is 0.261.
On to RRIRERPPRLPRPRPRPEQCPRP, for which the “shrunken log2 fold change” value is -0.0274.
Take RRIRDRPPRLPRPRPRPHGAPRP: the “shrunken log2 fold change” value was determined as 0.211.
For RRIRERPPRLPRPRPRPCTGPRP, the “shrunken log2 fold change” value was -0.264.
The result for RRIRCRPPRLPRPRPRPDFCPRP reads -0.228.
For the sequence RRIRFRPPRLPRPRPRPLQIPRP, the “shrunken log2 fold change” value is -0.384.
In the case of RRIRMRPPRLPRPRPRPYSNPRP, the “shrunken log2 fold change” value was -0.834.
The result for RRIRWRPPRLPRPRPRPIIDPRP reads 0.0788.
To RRIRVRPPRLPRPRPRPGICPRP belongs -0.0598; to RRIRIRPPRLPRPRPRPLLNPRP, -0.731; to RRIRVRPPRLPRPRPRPLCTPRP, -0.0347.
The result for RRIRGRPPRLPRPRPRPTNSPRP reads 0.319; that for RRIRPRPPRLPRPRPRPLWSPRP, -0.0489; that for RRIRQRPPRLPRPRPRPLYVPRP, -0.307.
As to RRIRTRPPRLPRPRPRPACQPRP, the “shrunken log2 fold change” value was determined as 0.0771.
To RRIRARPPRLPRPRPRPTGNPRP belongs 0.186; to RRIRQRPPRLPRPRPRPGCFPRP, 0.0403.
To RRIRCRPPRLPRPRPRPWTQPRP belongs -0.12; to RRIRRRPPRLPRPRPRPNPNPRP, 0.369; to RRIRQRPPRLPRPRPRPFKMPRP, -0.217.
With RRIRMRPPRLPRPRPRPPSEPRP, the “shrunken log2 fold change” value was determined as 0.962.
To RRIRPRPPRLPRPRPRPLIYPRP belongs -0.457; to RRIRHRPPRLPRPRPRPRLPPRP, 0.131; to RRIRVRPPRLPRPRPRPELTPRP, 0.149.
The result for RRIRWRPPRLPRPRPRPLISPRP reads -0.0451; that for RRIRNRPPRLPRPRPRPKVCPRP, -0.0345.
To RRIRDRPPRLPRPRPRPWAYPRP belongs 0.0388; to RRIRDRPPRLPRPRPRPWSGPRP, -0.0455.
With RRIRSRPPRLPRPRPRPRPQPRP, the “shrunken log2 fold change” value was 0.72.
Consider RRIRPRPPRLPRPRPRPPVKPRP, for which the “shrunken log2 fold change” value came out at 0.172.
The result for RRIRRRPPRLPRPRPRPSPSPRP reads 0.386.
For the sequence RRIRRRPPRLPRPRPRPIRMPRP, the “shrunken log2 fold change” value was determined as 0.302.
To RRIRNRPPRLPRPRPRPFLYPRP belongs -0.468; to RRIRWRPPRLPRPRPRPFEKPRP, 0.0683.
The result for RRIRVRPPRLPRPRPRPLHMPRP reads -0.17.
For the sequence RRIRYRPPRLPRPRPRPMKNPRP, the “shrunken log2 fold change” value is -0.191.
Consider RRIRCRPPRLPRPRPRPTDLPRP, for which the “shrunken log2 fold change” value turned out to be 0.0853.
The result for RRIRKRPPRLPRPRPRPFRQPRP reads -0.0695; that for RRIRTRPPRLPRPRPRPYPHPRP, 0.0321.
Consider RRIRWRPPRLPRPRPRPWALPRP, for which the “shrunken log2 fold change” value was -0.158.
The result for RRIRGRPPRLPRPRPRPMDMPRP reads -0.02; that for RRIRLRPPRLPRPRPRPICKPRP, -0.28; that for RRIRFRPPRLPRPRPRPRNMPRP, -0.127.
Regarding RRIRSRPPRLPRPRPRPPPWPRP, the “shrunken log2 fold change” value was found to be 0.651.
The result for RRIRHRPPRLPRPRPRPYMWPRP reads -1.86.
Take RRIRVRPPRLPRPRPRPRWMPRP: the “shrunken log2 fold change” value is -0.0415.
Regarding RRIRMRPPRLPRPRPRPPKLPRP, the “shrunken log2 fold change” value stood at 0.343.
To RRIRCRPPRLPRPRPRPNGFPRP belongs -0.0899; to RRIRGRPPRLPRPRPRPGWSPRP, 0.758; to RRIRPRPPRLPRPRPRPTVCPRP, 0.149.
The result for RRIRSRPPRLPRPRPRPAEWPRP reads 1.02; that for RRIRQRPPRLPRPRPRPNNQPRP, -0.477; that for RRIRGRPPRLPRPRPRPGWFPRP, 0.27.
For the sequence RRIRPRPPRLPRPRPRPHRYPRP, the “shrunken log2 fold change” value is -0.136.
The result for RRIRYRPPRLPRPRPRPIIQPRP reads -0.0128.
RRIRQRPPRLPRPRPRPWRYPRP: the “shrunken log2 fold change” value is 0.0785.
To RRIRDRPPRLPRPRPRPVDEPRP belongs -0.023.
RRIRKRPPRLPRPRPRPHKDPRP: the “shrunken log2 fold change” value was -0.113.
Regarding RRIRHRPPRLPRPRPRPQDNPRP, the “shrunken log2 fold change” value was -0.144.
RRIRIRPPRLPRPRPRPPQQPRP: the “shrunken log2 fold change” value worked out at 0.197.
To RRIRHRPPRLPRPRPRPFHQPRP belongs -0.01; to RRIRDRPPRLPRPRPRPFRGPRP, 0.0499; to RRIRWRPPRLPRPRPRPRFFPRP, 0.326.
To RRIRMRPPRLPRPRPRPKQDPRP belongs 1.14; to RRIRFRPPRLPRPRPRPFVRPRP, -0.0733; to RRIRIRPPRLPRPRPRPGVMPRP, -0.346.
The result for RRIRKRPPRLPRPRPRPSVFPRP reads 0.244; that for RRIRLRPPRLPRPRPRPHIYPRP, -0.297.
For RRIRSRPPRLPRPRPRPFDCPRP, the “shrunken log2 fold change” value is -0.277.
As to RRIRPRPPRLPRPRPRPPVRPRP, the “shrunken log2 fold change” value is 0.353.
On to RRIRPRPPRLPRPRPRPRNMPRP, for which the “shrunken log2 fold change” value is -0.126.
As for RRIRMRPPRLPRPRPRPWFDPRP, the “shrunken log2 fold change” value is 0.00362.
As to RRIRPRPPRLPRPRPRPELLPRP, the “shrunken log2 fold change” value is 0.14.
RRIRKRPPRLPRPRPRPHRTPRP: the “shrunken log2 fold change” value is -0.19.
To RRIRFRPPRLPRPRPRPDHEPRP belongs 0.193; to RRIRLRPPRLPRPRPRPPMLPRP, -0.0338.
As to RRIRQRPPRLPRPRPRPYPSPRP, the “shrunken log2 fold change” value is -0.161.
With RRIRPRPPRLPRPRPRPPTWPRP, the “shrunken log2 fold change” value was determined as 0.302.
To RRIRFRPPRLPRPRPRPIDHPRP belongs -0.0746; to RRIRSRPPRLPRPRPRPFCAPRP, 0.0376; to RRIRDRPPRLPRPRPRPIILPRP, 0.0057.
To RRIRWRPPRLPRPRPRPNEFPRP belongs -0.161; to RRIRTRPPRLPRPRPRPKAQPRP, -0.0875.
With RRIRLRPPRLPRPRPRPECAPRP, the “shrunken log2 fold change” value amounted to 0.65.
The result for RRIRGRPPRLPRPRPRPAMNPRP reads 0.542.
Take RRIRYRPPRLPRPRPRPIKIPRP: the “shrunken log2 fold change” value was -0.105.
To RRIRSRPPRLPRPRPRPIVEPRP belongs 1.56; to RRIRCRPPRLPRPRPRPKIQPRP, -0.156; to RRIRARPPRLPRPRPRPVPFPRP, 0.0816.
